Consider 4 substances from patent US20220340678A1.

Assay [1] concerns the target p35-MSA fusion protein (human; mouse) (UniProt P29459). In words: BLI (Octet), biotinylated p35-MSA against p40-fab, 0 hr at 37 C. Background: Biolayer interferometry detects binding as a change in optical thickness at a sensor tip.
Assay [2] has the same target. As to the kind of experiment: BLI (Octet), biotinylated p35-MSA against p40-fab, 4 hr at 37 C.
The target is the same in assay [3]. In words: BLI (Octet), biotinylated p35-MSA against p40-fab, 24 hr at 37 C.
For assay [4] the target is unchanged. In words: BLI (Octet), biotinylated p35-MSA against p40-fab, 47 hr at 37 C.
Assay [5] deals with p40 without a fusion partner (human) (UniProt P29460). As to the kind of experiment: cell-based or functional assay.
Assay [6] has as its target p40-Fab fusion protein (human) (UniProt P29460). In words: cell-based or functional assay.
The target of assay [7] is p40-IgG (anti-uPAR M37 IgG) (human) (UniProt P29460). As to the kind of experiment: cell-based or functional assay.
Sequence of p40-IgG (anti-uPAR M37 IgG) (human) (P29460 23-328): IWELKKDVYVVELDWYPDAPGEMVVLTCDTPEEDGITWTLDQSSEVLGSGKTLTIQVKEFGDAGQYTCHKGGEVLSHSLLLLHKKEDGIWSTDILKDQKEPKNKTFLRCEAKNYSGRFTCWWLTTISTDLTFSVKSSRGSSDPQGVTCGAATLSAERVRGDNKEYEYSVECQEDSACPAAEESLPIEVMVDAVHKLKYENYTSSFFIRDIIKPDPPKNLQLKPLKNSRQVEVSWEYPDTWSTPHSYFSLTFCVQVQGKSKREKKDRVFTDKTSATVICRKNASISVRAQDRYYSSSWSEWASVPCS
Assay [8] addresses IL-12 receptor on HEK-BLUE IL-12 cells. As to the kind of experiment: cell-based or functional assay.
The target of assay [9] is GM-CSF receptor on U937 cells (human). As to the kind of experiment: cell-based or functional assay.

Sequence of p40-Fab fusion protein (human) (P29460 23-328): as above
Sequence of p40-Fab fusion protein (P29460 23-328): as above
Sequence of p35-MSA fusion protein (human; mouse) (P29459 23-219): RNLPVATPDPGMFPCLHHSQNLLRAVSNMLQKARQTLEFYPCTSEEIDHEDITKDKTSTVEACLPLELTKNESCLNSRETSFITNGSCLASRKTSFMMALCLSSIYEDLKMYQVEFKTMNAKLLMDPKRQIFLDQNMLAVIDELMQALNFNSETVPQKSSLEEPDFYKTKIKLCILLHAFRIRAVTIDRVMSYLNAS

The Kd is a measure of binding affinity in units of concentration. Read a high Kd as weaker binding. One may read the koff as the rate constant with which the complex falls apart. A higher koff goes with fast dissociation. One may read the kon as the second-order rate constant of association. A higher kon goes with fast association. With “p40-Fab fusion protein (from UniProt P29460 23-328)”, the Kd in assay [1] was 7.82 nM; in [2], 7.54 nM; in [3] it was 11.1 nM; in assay [4], 10.5 nM. Further, the off-rate constant (koff) in assay [1] is 0.000462 s⁻¹; in assay [2], 0.000385 s⁻¹; in assay [3], 0.000422 s⁻¹; in assay [4] it was 0.000376 s⁻¹. Further, the on-rate (kon) in assay [1] came out at 59100 M⁻¹ s⁻¹; in assay [2] it was 51100 M⁻¹ s⁻¹; in [3] it was 38100 M⁻¹ s⁻¹; in assay [4], 35800 M⁻¹ s⁻¹.

In [5], “p35-MSA fusion protein (from UniProt P29459 23-219)” had an EC50, % pStat4 formation in CD4+ T cells of 0.842 nM; an EC50, % pStat4 formation in CD8+ T cells of 1.06 nM; an EC50, IFN gamma production by T cells of 0.657 nM; an EC50 fold change relative to scIL-12, IFN gamma production of 128 fold. Besides, in assay [5], the EC50 fold change relative to scIL-12, pStat4 in CD4+ T cells came to 16.4 fold and the EC50 fold change relative to scIL-12, pStat4 in CD8+ T cells is 14.2 fold. In assay [6], this substance displayed an EC50, % pStat4 formation in CD4+ T cells of 0.708 nM; an EC50, % pStat4 formation in CD8+ T cells of 0.912 nM; an EC50, IFN gamma production by T cells of 0.559 nM; an EC50 fold change relative to scIL-12, IFN gamma production of 109 fold. In assay [6], this substance yielded an EC50 fold change relative to scIL-12, pStat4 in CD4+ T cells of 13.8 fold and an EC50 fold change relative to scIL-12, pStat4 in CD8+ T cells of 12.2 fold. In assay [7], this substance had an EC50, % pStat4 formation in CD4+ T cells of 0.173 nM; an EC50, % pStat4 formation in CD8+ T cells of 0.571 nM; an EC50, IFN gamma production by T cells of 0.403 nM; an EC50 fold change relative to scIL-12, IFN gamma production of 78.2 fold. Further, in [7], the EC50 fold change relative to scIL-12, pStat4 in CD4+ T cells stood at 3.37 fold and the EC50 fold change relative to scIL-12, pStat4 in CD8+ T cells was determined as 7.66 fold.

In assay [8], “wild-type human IL-12 (R&D Systems, Cat. No. 219-IL-005/CF) (from UniProt P29459 23-219; P29460 23-328) (ligand)” gave a potency, SEAP reporter in HEK-BLUE IL-12 cells of 0.018 nM.

In [9], “recombinant human GM-CSF (R&D Systems, cat # 215-GM-050/CF) (from UniProt P04141 18-144) (ligand)” returned a pSTAT5 EC50, U937 cells, no competitor of 18.6 pM.
